In patent publication US20230212294A1 (MINGHUI PHARMACEUTICAL SHANGHAI, published 2023):
Where a chain is given by its changes, count along the chain named.

B1: IL-P6-C11 (antibody, V domains shown)
VH: EVQLQQSGPELVKPGASVRISCKTSGYTFTDYVIHWVKQNHGGSLEWIGGINRDSGGTTYNQKFQDKVTLTVDKSSNTAYMELRSLTSEDSAVYYCTKWKFPWYFDVWGAGTTVTVSS
VL: DIELTQSPAIMSASPGEKVTMTCSASSSISYMHWYQQKPGTSPKRWIYDTSKLASGVPARFSGSGSGTSYSLTISRVEAEDAATYYCQQWSSNPLTFGSGTKLEIK
notes: Unhumanized murine variable regions; full-length antibody
B2: IL-P6-B07 (antibody, V domains shown)
VH: B1 VH with D31E
VL: B1 VL with E3V, I29V, P39S, R76S, V77M, S99A, I105L
notes: as for B1
B3: IL-P7-C05-H3L1 (antibody, V domains shown)
VH: EVQLVESGGGLVQPGGSLRLSCAASGFTFSSYGMSWVRQAPGKGLELVAAINSNGGSTYYADSVKGRFTISRDNAKNTLYLQMSSLRAEDTAVYYCTRNEEFRRGLAYWGQGTLVTVSS
VL: DIQMTQSPSSLSASVGDRVTITCRASENIYSNLAWYQQKPGKAPKLLVYAATNLADGVPSRFSGSGSGTDYTLTISSLQPEDFATYYCQHFWGTPPWTFGQGTKLEIK
notes: Humanized from IL-P7-C05; full-length antibody; also called ILP7C05huVH3 + ILP7C05huVL1
B4: IL-P7-C05-H4L1 (antibody, V domains shown)
VH: B3 VH with G33A
VL: B3 VL
notes: Humanized from IL-P7-C05; full-length antibody; also called ILP7C05huVH4 + ILP7C05huVL1
B5: IL-P7-C05-H3L3 (antibody, V domains shown)
VH: B3 VH
VL: B3 VL with V48I, T52S, A55Q, D56S
notes: Humanized from IL-P7-C05; full-length antibody; also called ILP7C05huVH3 + ILP7C05huVL3
B6: IL-P7-C05-H2L2 (antibody, V domains shown)
VH: B3 VH with A50T, S57T
VL: B3 VL with A55Q, D56S
notes: Humanized from IL-P7-C05; full-length antibody; also called ILP7C05huVH2 + ILP7C05huVL2
B7: IL-P7-C05-H2L1 (antibody, V domains shown)
VH: B3 VH with A50T, S57T
VL: B3 VL
notes: Humanized from IL-P7-C05; full-length antibody; also called ILP7C05huVH2 + ILP7C05huVL1
B8: IL-P7-C05-H1L1 (antibody, V domains shown)
VH: B3 VH with A50T, S57T, A61P, N77H
VL: B3 VL
notes: Humanized from IL-P7-C05; full-length antibody; also called ILP7C05huVH1 + ILP7C05huVL1
B9: NL24-A68 (antibody, V domains shown)
VH: QVQLVQSGAEVKKPGSSVKVSCKASGGTFSSYAISWVRQAPGQGLEWMGGIIPILGIANYAQKFQGRVTITADKSTSTAYMELSSLRAEDTAVYYCARGGSGRYLPDYWGQGTLVTVSA
VL: EIVLTQSPATLSLSPGERATLSCRASQSVSSYLAWYQQKPGQAPRLLIYDASNRATGIPARFSGSGSGTDFTLTISSLEPEDFAVYYCQQRSNWPPSLTFGGGTKVEIK
notes: Screened from the human source library; full-length antibody; also called NL24A68HC; NL24A68LC
B10: NL24-A17 (antibody, V domains shown)
VH: QVQLVQSGAEVKKPGSSVKVSCKASGGTFSSYAISWVRQAPGQGLEWMGGIIPILGIANYAQKFQGRVTITADESTSTAYMELSSLRSEDTAVYYCARGDSGYDSNYWGQGTLVTVSA
VL: B9 VL with S31T, F83Y, S97L, L98F, G102P, E107D
notes: Screened from the human source library; full-length antibody; also called NL24A17HC; NL24A17LC
B11: NL24-A10 (antibody, V domains shown)
VH: B9 VH with Q1E, L55F, I57T, K74E, A88S, G100E, S101R, R103S, P106I
VL: B9 VL with S97M, L98Y, G102Q, V106L
notes: Screened from the human source library; full-length antibody; also called NL24A10HC; NL24A10LC
B12: IL-P5-C06-H2L3 (antibody, V domains shown)
VH: QVQLVQSGAEVKKPGASVKVSCKGSGYTFTDYAIHWGRQAPGQGLEWIGIINTYNGNSNYAQKFQGRATMTRDTSTSTAYMELSRLRSEDTAVYYCARNYGSSFNWYFDVWGQGTTVTVSS
VL: DIQLTQSPSSLSASVGDRVTITCRASSSISSNYLHWYQQKPGKAPKLLIYSTSNLASGVPSRFSGSGSGTDFTLTISSLQPEDFATYYCQQYSGYPLTFGQGTKLELK
notes: Humanized from IL-P5-C06; full-length antibody; also called ILP5C06huVH2 + ILP5C06huVL3
B13: IL-P5-C06-H1L1 (antibody, V domains shown)
VH: B12 VH with G37A, R72V, T74K
VL: B12 VL with L11M, V19I, A44S, F72Y, L79V
notes: Humanized from IL-P5-C06; full-length antibody; also called ILP5C06huVH1 + ILP5C06huVL1
B14: IL-P5-C06-H3L3 (antibody, V domains shown)
VH: B12 VH with G24A, I48M, A68V
VL: B12 VL
notes: Humanized from IL-P5-C06; full-length antibody; also called ILP5C06huVH3 + ILP5C06huVL3
B15: IL-P5-C06-H2L2 (antibody, V domains shown)
VH: B12 VH
VL: B12 VL with V19I, L79V
notes: Humanized from IL-P5-C06; full-length antibody; also called ILP5C06huVH2 + ILP5C06huVL2
B16: IL-P5-C06-H2L4 (antibody, V domains shown)
VH: B12 VH
VL: B12 VL with L4M, A56Q
notes: Humanized from IL-P5-C06; full-length antibody; also called ILP5C06huVH2 + ILP5C06huVL4
B17: IL-P5-C06-H3L4 (antibody, V domains shown)
VH: B12 VH with G24A, I48M, A68V
VL: B12 VL with L4M, A56Q
notes: Humanized from IL-P5-C06; full-length antibody; also called ILP5C06huVH3 + ILP5C06huVL4
B18: IL-P5-C06-H1L3 (antibody, V domains shown)
VH: B12 VH with G37A, R72V, T74K
VL: B12 VL
notes: Humanized from IL-P5-C06; full-length antibody; also called ILP5C06huVH1 + ILP5C06huVL3
B19: IL-P5-C06-H1L4 (antibody, V domains shown)
VH: B12 VH with G37A, R72V, T74K
VL: B12 VL with L4M, A56Q
notes: Humanized from IL-P5-C06; full-length antibody; also called ILP5C06huVH1 + ILP5C06huVL4

What was measured:
[1] = biological target: T1, B7-H3 on CHOK cells overexpressing B7-H3; test: cell-based or functional assay
T1 sequence (Q5ZPR3 whole entry, species assumed, looked up): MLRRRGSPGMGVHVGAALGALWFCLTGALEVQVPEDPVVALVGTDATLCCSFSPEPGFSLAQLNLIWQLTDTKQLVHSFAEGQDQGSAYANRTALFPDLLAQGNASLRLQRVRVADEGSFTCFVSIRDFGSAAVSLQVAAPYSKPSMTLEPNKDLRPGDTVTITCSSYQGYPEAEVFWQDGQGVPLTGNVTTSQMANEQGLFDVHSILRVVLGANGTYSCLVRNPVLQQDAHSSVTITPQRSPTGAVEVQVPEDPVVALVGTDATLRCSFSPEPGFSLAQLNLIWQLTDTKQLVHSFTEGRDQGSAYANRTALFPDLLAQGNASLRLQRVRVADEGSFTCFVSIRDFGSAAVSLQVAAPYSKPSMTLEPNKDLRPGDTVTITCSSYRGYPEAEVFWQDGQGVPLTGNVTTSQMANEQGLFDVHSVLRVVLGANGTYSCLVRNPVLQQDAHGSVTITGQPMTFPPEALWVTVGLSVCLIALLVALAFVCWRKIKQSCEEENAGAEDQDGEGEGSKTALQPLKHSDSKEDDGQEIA

monkey B7-H3-his = biological target: T2, monkey B7-H3-his (monkey); test: ELISA, antigen coated at 2 µg/mL
T2 chain: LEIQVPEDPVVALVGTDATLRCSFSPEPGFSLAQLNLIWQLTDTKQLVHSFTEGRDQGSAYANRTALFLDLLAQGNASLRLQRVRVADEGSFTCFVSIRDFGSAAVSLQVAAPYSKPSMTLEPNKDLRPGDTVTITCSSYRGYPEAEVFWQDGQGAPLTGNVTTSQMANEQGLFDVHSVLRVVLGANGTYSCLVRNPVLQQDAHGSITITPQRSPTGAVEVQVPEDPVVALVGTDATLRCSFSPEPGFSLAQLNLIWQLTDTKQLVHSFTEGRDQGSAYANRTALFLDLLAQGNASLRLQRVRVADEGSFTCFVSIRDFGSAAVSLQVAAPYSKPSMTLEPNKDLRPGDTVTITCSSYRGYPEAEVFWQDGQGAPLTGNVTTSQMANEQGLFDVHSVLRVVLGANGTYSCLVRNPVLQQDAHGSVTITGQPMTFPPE
Protocol: (§1) Human B7-H3-his, mouse B7-H3-his and monkey B7-H3-his were diluted to 2 μg/mL with PBS, and added to the ELISA plate at 30 μL per well. The ELISA plate was then incubated in a refrigerator at 4° C. for 16-20 hours. The next day, the ELISA plate was washed once with a lotion (PBS containing 0.05% Tween 20) and then blocked with 5% skim milk powder for 1 hour. After blocking, the ELISA plate was washed once, then added with gradient-diluted anti-B7-H3 antibodies, and incubated at room temperature for 1 h. After incubated, the ELISA plate was washed three times, then added with goat anti-human HRP-labeled secondary antibody, and incubated at room temperature for 1 h. After incubated, the ELISA plate was washed three times, then developed for 5-15 minutes by adding TMB, and finally terminated with 2M sulfuric acid. The data were recorded on the microplate reader.

mouse B7-H3-his = biological target: T3, mouse B7-H3-his (mouse, UniProt Q8VE98 29-244, limits assumed); test: ELISA, antigen coated at 2 µg/mL
T3 construct: His-tagged recombinant protein coated on the ELISA plate; not shown: his tag
T3 sequence (looked up): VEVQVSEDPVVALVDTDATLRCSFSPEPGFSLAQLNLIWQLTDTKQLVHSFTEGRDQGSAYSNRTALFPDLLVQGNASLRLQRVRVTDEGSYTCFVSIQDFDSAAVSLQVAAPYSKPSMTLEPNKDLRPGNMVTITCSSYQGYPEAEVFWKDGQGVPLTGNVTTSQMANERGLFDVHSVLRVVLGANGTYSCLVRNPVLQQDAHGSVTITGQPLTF
Protocol: as §1

[2] = biological target: T4, B7-H3 endogenously expressed on human tumor cell lines (human, UniProt Q5ZPR3 29-534); test: flow cytometry on NCI-H322 cells
T4 construct: whole, on cells; The cell line is named in the assay or readout field of each row; also called NCI-H322 cells endogenously expressing B7-H3; B7-H3-positive human tumor cell lines NCI-H1975, BxPC-3, Calu-6
T4 sequence (looked up): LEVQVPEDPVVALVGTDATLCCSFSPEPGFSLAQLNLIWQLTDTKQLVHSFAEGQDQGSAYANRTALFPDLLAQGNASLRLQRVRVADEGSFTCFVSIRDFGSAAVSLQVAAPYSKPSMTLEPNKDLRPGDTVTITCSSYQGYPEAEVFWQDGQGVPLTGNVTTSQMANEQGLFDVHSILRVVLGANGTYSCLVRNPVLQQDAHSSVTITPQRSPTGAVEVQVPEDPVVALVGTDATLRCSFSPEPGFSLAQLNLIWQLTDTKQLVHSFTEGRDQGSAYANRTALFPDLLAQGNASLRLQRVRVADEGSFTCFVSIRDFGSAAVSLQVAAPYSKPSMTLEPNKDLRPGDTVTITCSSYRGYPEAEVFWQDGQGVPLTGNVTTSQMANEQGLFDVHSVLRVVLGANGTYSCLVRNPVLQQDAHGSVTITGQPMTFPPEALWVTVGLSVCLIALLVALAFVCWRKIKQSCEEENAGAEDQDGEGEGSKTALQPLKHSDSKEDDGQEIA
Protocol: (§2) CHOK cells overexpressing B7-H3 or NCI-H322 cells endogenously expressing B7-H3 were added to a round-bottom 96-well plate at 100,000 cells per well, centrifuged to remove the supernatant, and then added with a gradient-diluted anti-B7-H3 antibody and incubated at 4 degrees for 1 h. After incubation, the cells were washed twice with FACS buffer (PBS containing 2% FBS), then added with fluorescent-labeled goat anti-human secondary antibody (Abcam, ab98596) and incubated for 0.5 h. After incubation, the cells were washed twice with FACS buffer, then resuspended with FACS buffer and detected with flow cytometry (Beckman, cytoFlex).

[3] = biological target: T1, B7-H3 on CHOK cells overexpressing B7-H3; test: flow cytometry on CHOK cells overexpressing B7-H3
Protocol: as §2

| Binder | IC50 of CHO endocytosis experiment (toxin-labeled secondary antibody, cell viability) [1] | EC50 (monkey B7-H3-his) | EC50 (mouse B7-H3-his) | EC50 [2] | EC50 [3] |
| --- | --- | --- | --- | --- | --- |
| B1 | 0.0035 µg/mL | 0.0152 µg/mL | 0.523 µg/mL | 0.21 µg/mL | 0.311 µg/mL |
| B2 | – | 0.183 µg/mL | 1.29 µg/mL | 0.249 µg/mL | – |
| B3 | – | – | – | 0.0109 µg/mL | 0.454 µg/mL |
| B4 | – | – | – | 0.0138 µg/mL | 0.468 µg/mL |
| B5 | – | – | – | 0.0106 µg/mL | 0.431 µg/mL |
| B6 | – | – | – | 0.0145 µg/mL | 0.455 µg/mL |
| B7 | – | – | – | 0.0144 µg/mL | 0.426 µg/mL |
| B8 | – | – | – | 0.0107 µg/mL | 0.426 µg/mL |
| B9 | 0.0035 µg/mL | 0.131 µg/mL | 0.205 µg/mL | 0.0484 µg/mL | – |
| B10 | – | 0.0527 µg/mL | 0.0643 µg/mL | 0.0267 µg/mL | 0.665 µg/mL |
| B11 | – | 0.124 µg/mL | 0.219 µg/mL | 0.0304 µg/mL | 0.448 µg/mL |
| B12 | – | – | – | 0.0618 µg/mL | 0.826 µg/mL |
| B13 | – | – | – | 0.0895 µg/mL | 1.05 µg/mL |
| B14 | – | – | – | 0.137 µg/mL | 1.18 µg/mL |
| B15 | – | – | – | 0.0919 µg/mL | 1.12 µg/mL |
| B16 | – | – | – | 0.0576 µg/mL | 0.747 µg/mL |
| B17 | – | – | – | 0.107 µg/mL | 1.13 µg/mL |
| B18 | – | – | – | 0.0829 µg/mL | 0.941 µg/mL |
| B19 | – | – | – | 0.0436 µg/mL | 0.596 µg/mL |
